The values below come from paper doi:10.64898/2025.12.10.693404.

The target in series [1] is T1, His6-SUMO-TDP-43 (UniProt Q13148 1-414). Kind of series: fluorescence anisotropy. Background: In fluorescence polarisation assays a small probe gives low polarisation when free and higher when bound to something large.
Series [2] deals with T1, His6-SUMO-TDP-43. Kind of series: fluorescence anisotropy. This is another data set of the same source.

T1 sequence (Q13148 whole entry): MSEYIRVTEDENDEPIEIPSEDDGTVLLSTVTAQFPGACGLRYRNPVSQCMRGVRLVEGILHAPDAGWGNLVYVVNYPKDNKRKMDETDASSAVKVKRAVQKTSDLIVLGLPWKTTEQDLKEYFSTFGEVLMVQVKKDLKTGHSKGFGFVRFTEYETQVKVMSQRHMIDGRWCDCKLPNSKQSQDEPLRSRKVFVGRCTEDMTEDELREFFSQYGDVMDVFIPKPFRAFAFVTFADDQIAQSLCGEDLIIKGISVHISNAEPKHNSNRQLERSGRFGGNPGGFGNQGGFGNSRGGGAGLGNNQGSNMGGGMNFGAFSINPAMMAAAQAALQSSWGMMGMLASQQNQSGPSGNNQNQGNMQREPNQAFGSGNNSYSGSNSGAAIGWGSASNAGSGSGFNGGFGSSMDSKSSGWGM

A word on the Kd: it is the equilibrium constant for the complex coming apart. Higher therefore signals a looser complex. As to TGTGTGTG (ssDNA) [(TG)4], the Kd in the series with His6-SUMO-TDP-43 [1] was around 1800 nM.

In the case of ACACACAC (ssDNA) [(AC)4], in the series with His6-SUMO-TDP-43 [2], the binding result is given as “no binding”.
